According to patent publication US6017886A, “Use of NDF peptide as growth factor for sensory epithelium” (Amgen Inc., priority 1999, dated 2000):

B1: GDNF: recombinant derived glial-derived neurotrophic factor (GDNF) (protein, UniProt P39905 78-211, looked up)
Glial cell line-derived …: SPDKQMAVLPRRERNRQAAAANPENSRGKGRRGQRGKNRGCVLTAIHLNVTDLGLGYETKEELIFRYCSGSCDAAETTYDKILKNLSRNRRLVSDKVGQACCRPIAFDDDLSFLDDNLVYHILRKHSAKRCGCI
B2: KGF: recombinant derived keratinocyte growth factor (KGF) (protein, UniProt P21781 32-194, looked up)
Fibroblast growth factor 7: CNDMTPEQMATNVNCSSPERHTRSYDYMEGGDIRVRRLFCRTQWYLRIDKRGKVKGTQEMKNNYNIMEIRTVAVGIVAIKGVESEFYLAMNKEGKLYAKKECNEDCNFKELILENHYNTYASAKWTHNGGEMFVALNQKGIPVRGKKTKKEQKTAHFLPMAIT
B3: CNTF: recombinant derived ciliary-derived neurotrophic factor (CNTF) (protein, UniProt P26441 1-200, looked up)
Ciliary neurotrophic factor: MAFTEHSPLTPHRRDLCSRSIWLARKIRSDLTALTESYVKHQGLNKNINLDSADGMPVASTDQWSELTEAERLQENLQAYRTFHVLLARLLEDQQVHFTPTEGDFHQAIHTLLLQVAAFAYQIEELMILLEYKIPRNEADGMPINVGDGGLFEKKLWGLKVLQELSQWTVRSIHDLRFISSHQTGIPARGSHYIANNKKM
B4: FGF-10: recombinant derived FGF-10 (protein, UniProt O15520 38-208, looked up)
Fibroblast growth factor 10: QALGQDMVSPEATNSSSSSFSSPSSAGRHVRSYNHLQGDVRWRKLFSFTKYFLKIEKNGKVSGTKKENCPYSILEITSVEIGVVAVKAINSNYYLAMNKKGKLYGSKEFNNDCKLKERIEENGYNTYASFNWQHNGRQMYVALNGKGAPRRGQKTRRKNTSAHFLPMVVHS

These molecules were tested on utricular epithelium from seven day-old rats (assay: BrdU incorporation (mitogenic activity) in primary culture of infant rat utricular sensory epithelium). Settings: 50 ng/ml, seventy-two hours culture, infant (seven day-old) rat epithelium; control 50±7.
Assay type: cell-based
Method: Sensory edithelial cells obtained from utricles in the inner ear of both seven day-old (infant) rats and six week-old (adult) rats were isolated with the use of thermolysin treatment; see Corwin et al., Abstracts of the Association for Research in Otolaryngology, Volume 18, page 87 (1995). All edges were trimmed away and the central portion of the epithelium was cut into quarters. Epithelial cells from the infant rats were cultured in DMEM/F12 with 10% FBS (Gibco BRL, Grand Island, N.Y.), and 3 micrograms per milliliter (μg/ml) of mitosis tracer BrdU (Aldrich Chemicals, Milwaukee, Wis.) for seventy-two hours, with or without 50 nanograms per milliliter (ng/ml) of the peptide of SEQ ID NO: 1 or 50 ng/ml of recombinant derived FGF-10, recombinant derived FGF-16, recombinant derived ciliary-derived neurotrophic factor (CNTF), recombinant derived neurotrophic growth facor (NGF), recombinant derived glial-derived neurotrophic factor (GDNF), recombinant derived keratinocyte growth factor (KGF), or a control (no growth factor present). The experiment was ended by fixing in 4% paraformaldehyde for one hour.
After several washes, the explants were immunostained for calretinin (a vestibular organ hair cell marker) using rabbit antiserum (SWant Swiss Antibodies, Belinzona, Switzerland), diluted 1:10,000. The secondary antibody was goat anti-rabbit immunoglobulin conjugated to biotin, diluted 1:1,000. Extensive washes were followed by incubating the explants with egg white avidin conjugated to Cy3, diluted 1:1,000. The explants were fixed again with paraformaldehyde as described above, then processed for BrdU immunostaining (a measure of cell proliferation) using standard immunostaining protocols. The mouse monoclonal ant-BrdU antibody was obtained from Caltag Laboratories of San Franscisco, Calif. The secondary antibody, a goat anti-mouse conjugated to FITC, was obtained from Antibodies, Inc. of Davis, Calif.

Question: B1 was tested. Which “number of BrdU-positive nuclei per piece of epithelium” value (from here on “number … per piece of epithelium”) did it give?
Answer: 37±13

Question: For B2, which “number … per piece of epithelium” value is on record?
Answer: 89±16

Question: How did the “number … per piece of epithelium” value turn out when B3 was run?
Answer: 23±3

Question: How did the “number … per piece of epithelium” value turn out when B4 was run?
Answer: 11±4
